Experiment [1] deals with T1, full length extracellular domain of human CD73 linked to a His tag (human, UniProt P21589 27-547, glycosylated).
T1 construct: 27-553 is 27-547 plus that tag; also called hCD73-his; CD73-his
T1 sequence: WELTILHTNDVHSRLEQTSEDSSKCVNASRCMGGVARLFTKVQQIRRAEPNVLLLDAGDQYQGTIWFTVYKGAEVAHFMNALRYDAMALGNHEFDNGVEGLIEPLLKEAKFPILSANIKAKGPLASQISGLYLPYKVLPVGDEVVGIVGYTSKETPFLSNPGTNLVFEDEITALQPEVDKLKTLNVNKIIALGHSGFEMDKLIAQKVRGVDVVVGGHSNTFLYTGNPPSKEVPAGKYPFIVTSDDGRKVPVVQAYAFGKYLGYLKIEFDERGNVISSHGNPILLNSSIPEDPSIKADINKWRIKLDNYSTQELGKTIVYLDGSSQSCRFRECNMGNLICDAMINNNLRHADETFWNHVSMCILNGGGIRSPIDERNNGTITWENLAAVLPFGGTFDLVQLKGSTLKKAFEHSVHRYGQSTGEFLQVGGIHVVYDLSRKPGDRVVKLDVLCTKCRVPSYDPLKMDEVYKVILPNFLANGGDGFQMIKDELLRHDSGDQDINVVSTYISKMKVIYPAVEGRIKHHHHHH
Briefly: SEC-MALS, equimolar mix 5.5 uM mAb + 5.5 uM hCD73-his, peak area. As to the method:
The oligomeric state of CD73/antibody complexes were examined by size-exclusion chromatography coupled to an in-line multi-angle light scattering detector (SEC-MALS). Isocratic separations were performed on a Shodex PROTEIN KW-803 column connected to an Prominence Shimadzu UFLC in buffer containing 200 mM K2HPO4, 150 mM NaCl, pH 6.8, containing 0.02% Na azide (0.1 μm filtered) running at 0.5 mL/min. Samples were injected onto the column using a SIL-20AC Prominence Shimadzu autosampler, and data were obtained from three online detectors connected in series: a Prominence SPD-20AD diode array UV/vis spectrophotometer followed by a Wyatt miniDAWN™ TREOS Multi-Angle Light Scattering Detector then a Wyatt Optilab T-rEX Refractive Index Detector. Data were collected and analyzed using Astra (Wyatt) and Labsolutions (Shimadzu) software.
CD73.4 antibodies having the heavy chain constant regions set forth in Table 26 were also tested for formation of high molecular weight complexes by SEC-MALS and DLS experiments, as described in Example 11.

Experiment [2] has as its target T2, N-terminal domain of hCD73 (residues 26-336 of human CD73), His-tagged (human, UniProt P21589 26-336).
T2 construct: also called N-hCD73; N-hCD73-his
T2 sequence: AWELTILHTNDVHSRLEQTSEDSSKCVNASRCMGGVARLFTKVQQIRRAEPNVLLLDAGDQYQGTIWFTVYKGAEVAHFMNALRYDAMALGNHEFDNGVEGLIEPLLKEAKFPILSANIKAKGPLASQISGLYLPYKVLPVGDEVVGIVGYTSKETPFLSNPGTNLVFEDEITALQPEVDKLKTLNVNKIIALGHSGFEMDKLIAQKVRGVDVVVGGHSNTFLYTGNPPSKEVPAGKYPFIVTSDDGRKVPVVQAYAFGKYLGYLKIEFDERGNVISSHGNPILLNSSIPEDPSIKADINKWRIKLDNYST
Put plainly: SPR, comparison of all IgG2 molecules. As to the method:
For these experiments, protein A (Pierce) was immobilized to a density of 3000 — 4000 RU on flow cells 1-4 of a CM5 sensor chip (GE Healthcare) using standard ethyl(dimethylaminopropyl) carbodiimide (EDC)/N-hydroxysuccinimide (NHS) chemistry, with ethanolamine blocking, in a running buffer of 0.01 M HEPES pH 7.4, 0.15 M NaCl, 3 mM EDTA, 0.005% v/v tween 20. […] The running buffer for the kinetic experiments was 10 mM sodium phosphate, 130 mM sodium chloride, 0.05% tween 20, pH 7.1. The surfaces were regenerated after each cycle using two 30 s pulses of 10 mM glycine pH 1.5 at a flow rate of 30 μl/min. Sensogram data was double-referenced and then fitted to a 1:1 Langmuir model using Biacore T100 evaluation software v2.0.4, to determine the association rate constant (ka), the dissociation rate constant (kd), and the equilibrium dissociation constant (KD).
On the technique in general: Surface plasmon resonance follows binding to a sensor surface in real time, without labels.

In the next experiment the target is T3, rat CD73 (rat, UniProt P21588 29-551, limits assumed).
T3 sequence (looked up): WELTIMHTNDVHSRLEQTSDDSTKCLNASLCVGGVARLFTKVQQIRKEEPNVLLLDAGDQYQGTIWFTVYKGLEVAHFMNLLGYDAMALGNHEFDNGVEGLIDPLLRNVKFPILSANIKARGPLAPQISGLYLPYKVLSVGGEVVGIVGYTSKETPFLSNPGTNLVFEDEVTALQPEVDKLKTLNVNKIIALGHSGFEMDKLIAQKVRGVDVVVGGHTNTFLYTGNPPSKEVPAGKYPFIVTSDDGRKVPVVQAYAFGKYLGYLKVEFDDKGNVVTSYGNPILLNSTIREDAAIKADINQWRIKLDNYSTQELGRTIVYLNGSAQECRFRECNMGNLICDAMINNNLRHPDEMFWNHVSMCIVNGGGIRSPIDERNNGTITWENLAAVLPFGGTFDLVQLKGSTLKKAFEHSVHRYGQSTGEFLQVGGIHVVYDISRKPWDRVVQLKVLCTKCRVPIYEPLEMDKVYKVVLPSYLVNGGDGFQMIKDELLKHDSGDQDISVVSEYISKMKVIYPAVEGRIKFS
Put plainly: SPR study of Example 3A; format not described.

The target of a further experiment is T4, mouse CD73 (mouse, UniProt Q61503 29-551, limits assumed).
T4 sequence (looked up): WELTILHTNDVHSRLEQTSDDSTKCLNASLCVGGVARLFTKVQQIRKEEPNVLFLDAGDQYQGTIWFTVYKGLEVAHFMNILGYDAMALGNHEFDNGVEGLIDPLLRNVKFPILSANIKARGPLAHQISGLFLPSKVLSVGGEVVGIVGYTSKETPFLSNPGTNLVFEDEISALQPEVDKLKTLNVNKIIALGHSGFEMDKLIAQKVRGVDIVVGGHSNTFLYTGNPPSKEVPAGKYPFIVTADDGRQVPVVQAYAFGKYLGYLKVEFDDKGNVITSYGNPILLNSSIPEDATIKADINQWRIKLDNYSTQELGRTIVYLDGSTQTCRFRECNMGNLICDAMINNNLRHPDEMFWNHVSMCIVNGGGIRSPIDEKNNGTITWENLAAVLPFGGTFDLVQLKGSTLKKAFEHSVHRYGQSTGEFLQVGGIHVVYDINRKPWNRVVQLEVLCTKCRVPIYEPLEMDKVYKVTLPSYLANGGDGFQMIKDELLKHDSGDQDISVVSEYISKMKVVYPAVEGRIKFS
Briefly: SPR study of Example 3A; format not described.

B1: CD73.4-IgG2-C219S (antibody)
heavy: QVQLVESGGGVVQPGRSLRLSCAASGFTFSNYGMHWVRQAPGKGLEWVAVILYDGSNKYYPDSVKGRFTISRDNSKNTLYLQMNSLRAEDTAVYYCARGGSSWYPDSFDIWGQGTMVTVSSASTKGPSVFPLAPCSRSTSESTAALGCLVKDYFPEPVTVSWNSGALTSGVHTFPAVLQSSGLYSLSSVVTVPSSNFGTQTYTCNVDHKPSNTKVDKTVERKSCVECPPCPAPPVAGPSVFLFPPKPKDTLMISRTPEVTCVVVDVSHEDPEVQFNWYVDGVEVHNAKTKPREEQFNSTFRVVSVLTVVHQDWLNGKEYKCKVSNKGLPAPIEKTISKTKGQPREPQVYTLPPSREEMTKNQVSLTCLVKGFYPSDIAVEWESNGQPENNYKTTPPMLDSDGSFFLYSKLTVDKSRWQQGNVFSCSVMHEALHNHYTQKSLSLSPG
light: not shown
notes: also called CD73.4-IgG2CS; CD73.4-IgG2.3
As to B1, the “UV % Peak1 <12.9 min (complexes larger than 4:4 hCD73-his:mAb)” value in experiment [1] was 37%.

B2: CD73.10-IgG2-C219S (antibody)
heavy: QVQLVESGGGVVQPGRSLRLSCAASGFTFSNYGMHWVRQAPGKGLEWVAVIWYDESNKYYPDSVKGRFTISRDNSKNTLYLQMNSLRAEDTAVYYCARGGSSWYPDSFDIWGQGTMVTVSSASTKGPSVFPLAPCSRSTSESTAALGCLVKDYFPEPVTVSWNSGALTSGVHTFPAVLQSSGLYSLSSVVTVPSSNFGTQTYTCNVDHKPSNTKVDKTVERKSCVECPPCPAPPVAGPSVFLFPPKPKDTLMISRTPEVTCVVVDVSHEDPEVQFNWYVDGVEVHNAKTKPREEQFNSTFRVVSVLTVVHQDWLNGKEYKCKVSNKGLPAPIEKTISKTKGQPREPQVYTLPPSREEMTKNQVSLTCLVKGFYPSDIAVEWESNGQPENNYKTTPPMLDSDGSFFLYSKLTVDKSRWQQGNVFSCSVMHEALHNHYTQKSLSLSPG
light: not shown
notes: also called CD73.10-IgG2CS; CD73.10-IgG2S
With B2, in experiment [2], the “fold lower affinity than 11F11 or CD73.4” value is ~10 fold.

B3: CD73.4-IgG2-C219S-IgG1.1f (antibody)
heavy: QVQLVESGGGVVQPGRSLRLSCAASGFTFSNYGMHWVRQAPGKGLEWVAVILYDGSNKYYPDSVKGRFTISRDNSKNTLYLQMNSLRAEDTAVYYCARGGSSWYPDSFDIWGQGTMVTVSSASTKGPSVFPLAPCSRSTSESTAALGCLVKDYFPEPVTVSWNSGALTSGVHTFPAVLQSSGLYSLSSVVTVPSSNFGTQTYTCNVDHKPSNTKVDKTVERKSCVECPPCPAPPVAGPSVFLFPPKPKDTLMISRTPEVTCVVVDVSHEDPEVKFNWYVDGVEVHNAKTKPREEQYNSTYRVVSVLTVLHQDWLNGKEYKCKVSNKALPSSIEKTISKAKGQPREPQVYTLPPSREEMTKNQVSLTCLVKGFYPSDIAVEWESNGQPENNYKTTPPVLDSDGSFFLYSKLTVDKSRWQQGNVFSCSVMHEALHNHYTQKSLSLSPG
light: not shown
modifications: 94% of the N-terminal glutamine was pyro-Q; 97% of the heavy chains lacked the C-terminal lysine
notes: also called CD73.4-IgG2CS-IgG1.1f
On to B3, for which the binding result with rat CD73 and in the experiment with mouse CD73 was “no binding” each time.
